# Measured values published in US20240325555A1 (LANOVA MEDICINES, published 2024).
# Where two headings read alike, the source gives them in different places.
# T1: human LIV-1 (human, UniProt Q13433 29-755)
# T1 sequence (looked up): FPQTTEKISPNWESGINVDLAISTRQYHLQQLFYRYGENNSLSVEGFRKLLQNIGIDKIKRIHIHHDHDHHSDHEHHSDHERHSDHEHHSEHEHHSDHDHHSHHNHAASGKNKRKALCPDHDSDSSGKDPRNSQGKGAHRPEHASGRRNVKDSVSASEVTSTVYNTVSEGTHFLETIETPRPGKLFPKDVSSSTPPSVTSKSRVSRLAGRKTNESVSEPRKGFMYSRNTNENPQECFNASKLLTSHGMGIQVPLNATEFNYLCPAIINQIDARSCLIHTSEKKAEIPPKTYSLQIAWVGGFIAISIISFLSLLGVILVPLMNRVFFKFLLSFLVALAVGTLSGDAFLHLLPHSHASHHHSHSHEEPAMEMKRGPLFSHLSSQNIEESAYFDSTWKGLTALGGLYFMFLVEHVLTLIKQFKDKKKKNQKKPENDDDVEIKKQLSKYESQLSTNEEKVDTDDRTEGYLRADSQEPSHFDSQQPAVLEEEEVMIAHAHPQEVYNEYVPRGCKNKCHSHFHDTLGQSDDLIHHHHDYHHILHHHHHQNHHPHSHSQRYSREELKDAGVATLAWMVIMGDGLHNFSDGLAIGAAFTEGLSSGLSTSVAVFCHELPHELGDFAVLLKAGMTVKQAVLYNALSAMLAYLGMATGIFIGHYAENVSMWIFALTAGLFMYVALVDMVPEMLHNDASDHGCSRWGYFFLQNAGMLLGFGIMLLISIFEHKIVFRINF
# How the values were obtained:
# cynomolgus LIV-1 [1] = biological target: T2, cynomolgus LIV-1 (cynomolgus, UniProt A0A2K5WH46 30-741); experiment: FACS, cyno LIV-1 cells
# Target sequence in this assay (A0A2K5WH46 entry or part of it): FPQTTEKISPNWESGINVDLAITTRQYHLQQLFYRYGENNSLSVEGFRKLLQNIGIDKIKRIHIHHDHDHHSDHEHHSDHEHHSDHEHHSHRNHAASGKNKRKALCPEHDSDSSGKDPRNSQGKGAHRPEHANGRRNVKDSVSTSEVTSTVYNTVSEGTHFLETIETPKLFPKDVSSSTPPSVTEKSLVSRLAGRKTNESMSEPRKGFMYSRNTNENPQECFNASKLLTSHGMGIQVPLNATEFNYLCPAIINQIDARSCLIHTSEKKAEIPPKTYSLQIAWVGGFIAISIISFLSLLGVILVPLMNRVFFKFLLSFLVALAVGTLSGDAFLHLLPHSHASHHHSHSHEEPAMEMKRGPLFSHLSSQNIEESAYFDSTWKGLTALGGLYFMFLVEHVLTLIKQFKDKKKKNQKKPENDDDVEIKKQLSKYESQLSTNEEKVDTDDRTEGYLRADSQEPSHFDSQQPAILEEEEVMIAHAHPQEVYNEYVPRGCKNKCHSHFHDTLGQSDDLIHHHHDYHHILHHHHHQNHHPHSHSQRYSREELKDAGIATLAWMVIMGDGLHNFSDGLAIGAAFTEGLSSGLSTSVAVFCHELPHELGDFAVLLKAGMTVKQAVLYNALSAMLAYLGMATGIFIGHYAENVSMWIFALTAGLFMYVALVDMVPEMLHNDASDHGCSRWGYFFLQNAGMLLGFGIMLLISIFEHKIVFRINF
# human LIV-1 [2] = biological target: T1, human LIV-1; experiment: cell-based or functional assay
# human LIV-1 [3] = biological target: T1, human LIV-1; experiment: FACS, human LIV-1 cells
# Summary of the method: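 HEK293 cells expressing human LIV-1 incubated with humanized antibodies (from 100 nM, 6-fold dilutions, 8 points) at 4 °C for 60 min. Bound antibody detected with a fluorescent secondary antibody (4 °C, 30 min) by flow cytometry.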
# human LIV-1 [4] = biological target: T1, human LIV-1; experiment: FACS, HEK293/H_LIV-1 cells
# Method: (§1) Cell based binding of ADC and naked of ADC on human LIV-1 expressing cells were assessed using flow cytometry. Briefly, HEK293/H_LIV-1, both low- and high-expressing H-LIV1-positive cell lines were incubated with ADC and naked of ADC (from 100 nM, 6 folds dilution, 8 points), respectively. After incubation at 4° C. for 60 minutes, the cells were washed with FACS buffer twice, then stained with fluorescent conjugated secondary antibody at 4° C. for 30 minutes. After that the cells were washed twice and analyzed by flow cytometry.
# human LIV-1 [5] = biological target: T1, human LIV-1; experiment: FACS, BT20/H_LIV-1 Low cells
# Method: as §1
# human LIV-1 [6] = biological target: T1, human LIV-1; experiment: FACS, BT20/H_LIV-1 High cells
# Method: as §1
# human LIV-1 [7] = biological target: T1, human LIV-1; experiment: cell-based or functional assay; remark: listed apart in the source
# human LIV-1 [8] = biological target: T1, human LIV-1; experiment: cell-based or functional assay; remark: listed apart in the source
# human LIV-1 [9] = biological target: T1, human LIV-1; experiment: cell-based or functional assay; remark: listed apart in the source
# human LIV-1 [10] = biological target: T1, human LIV-1; experiment: cell-based or functional assay; remark: listed apart in the source
# human LIV-1 [11] = biological target: T1, human LIV-1; experiment: cell-based or functional assay; remark: listed apart in the source
# human LIV-1 [12] = biological target: T1, human LIV-1; experiment: FACS, HEK293/H_LIV-1 cells; remark: listed apart in the source
# Summary of the method: (§2)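 HEK293 cells over-expressing human or cyno LIV-1 incubated with chimeric Abs (from 100 nM, 5-fold dilutions, 8 points) for 60 min at 4 °C, then fluorescent secondary antibody 30 min at 4 °C; washes in 2% FBS/PBS. Binding read by flow cytometry; EC50 from the titration curve.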
# human LIV-1 [13] = biological target: T1, human LIV-1; experiment: FACS, HEK293/H_LIV-1 cells; remark: listed apart in the source
# Method: In this example, cell based binding of humanized antibodies (hu Abs) on human LIV-1-expressing cells were assessed using flow cytometry.
# as §1, with “hu-Abs” for “ADC and naked of ADC”, “the HEK293/H_LIV-1 cells” for “HEK293/H_LIV-1, both low- and high-expressing H-LIV1-positive cell lines”, “points).” for “points), respectively.”
# rhesus LIV-1 = rhesus LIV-1 (rhesus, UniProt H9FSJ2 30-735); experiment: FACS, HEK293/Rhe_LIV-1 cells
# Sequence of rhesus LIV-1 (H9FSJ2 entry or part of it): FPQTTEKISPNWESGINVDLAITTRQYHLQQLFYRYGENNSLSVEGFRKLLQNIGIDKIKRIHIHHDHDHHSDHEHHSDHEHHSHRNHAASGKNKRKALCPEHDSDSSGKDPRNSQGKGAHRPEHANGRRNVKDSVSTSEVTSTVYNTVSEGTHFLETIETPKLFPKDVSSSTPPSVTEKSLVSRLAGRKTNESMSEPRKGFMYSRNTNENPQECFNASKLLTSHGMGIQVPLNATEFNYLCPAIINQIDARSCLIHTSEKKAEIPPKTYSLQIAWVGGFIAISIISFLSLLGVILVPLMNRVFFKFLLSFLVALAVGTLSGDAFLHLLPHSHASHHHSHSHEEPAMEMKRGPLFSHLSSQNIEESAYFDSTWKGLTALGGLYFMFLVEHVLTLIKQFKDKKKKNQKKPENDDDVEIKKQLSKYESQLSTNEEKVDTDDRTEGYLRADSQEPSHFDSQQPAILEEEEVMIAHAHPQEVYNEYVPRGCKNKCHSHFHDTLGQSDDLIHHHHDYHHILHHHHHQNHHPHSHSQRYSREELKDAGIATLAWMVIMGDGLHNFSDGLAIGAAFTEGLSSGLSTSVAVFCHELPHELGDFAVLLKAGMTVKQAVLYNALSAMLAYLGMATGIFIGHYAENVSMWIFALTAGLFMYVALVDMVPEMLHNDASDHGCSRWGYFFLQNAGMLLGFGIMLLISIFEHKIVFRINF
# Method: Humanized antibodies 5D6B10.z7, 124H4D11.p2.z4 and 290F10G10.p1.z2 were selected for further testing. In this example, FACS cross binding of these selected antibodies to LIV-1 of different species were assessed using flow cytometry.
# (§3) Cell based binding of optimal leads to different species LIV-1 expressing cells were assessed using flow cytometry. Briefly, the cells were incubated with optimal leads (from 100 nM, 6 folds dilution, 8 points). After incubation at 4° C. for 60 minutes, the cells were washed with 2% FBS/PBS buffer twice, then stained with fluorescent conjugated secondary antibody at 4° C. for 30 minutes. After that the cells were washed twice and resuspended in 80 μL of 2% FBS/PBS buffer. Fluorescent signal of binding was detected using Agilent. The EC50 was calculated using the GraphPad Software (LaJolla, CA).
# cynomolgus LIV-1 [14] = biological target: T2, cynomolgus LIV-1; experiment: FACS, HEK293/Cyno_LIV-1 cells
# Summary of the method: as §2
# cynomolgus LIV-1 [15] = biological target: T2, cynomolgus LIV-1; experiment: FACS, HEK293/Cyno_LIV-1 cells; remark: listed apart in the source
# Target sequence in this assay (A0A2K5WH46 entry or part of it): as the sequence (A0A2K5WH46 entry or part of it) above
# cynomolgus LIV-1 [16] = biological target: T2, cynomolgus LIV-1; experiment: FACS, HEK293/Cyno_LIV-1 cells; remark: listed apart in the source
# Method: as §3
# Target sequence in this assay (A0A2K5WH46 entry or part of it): as above
binder,measurement,setting,value
"290F10G10.p1.Z2 (antibody, V domains shown, also called 290F10G10.z2; LM-001) VH: EVQLVQSGAEVKKPGASVKVSCKASGYTFTSYWIHWVRQAPGQGLEWMGTIYPGDADTRSTQKFKDRVTMTADTSTSTVYMELSSLRSEDTAVYYCARSLIHDDYDKYYFDYWGQGTTVTVSS VL: DIQMTQSPSSLSASVGDRVTITCKARQDINKYIAWYQQKPGKAPKLLIHYTSILQPGIPSRFSGSGSGRDYTFTISSLQPEDIATYYCLQYDYFFTFGGGTKVEIK",EC50,cynomolgus LIV-1 [1],0.38 nM
same,Top (MFI),cynomolgus LIV-1 [1],7470 MFI
same,Internalization EC50,human LIV-1 [2],5 nM
same,Internalization Top (MFI),human LIV-1 [2],112000 MFI
same,EC50,human LIV-1 [3],0.24 nM
same,Top (MFI),human LIV-1 [3],7660 MFI
same,EC50,human LIV-1 [4],0.7 nM
same,Top (MFI),human LIV-1 [4],17800 MFI
same,EC50,human LIV-1 [5],1.43 nM
same,Top (MFI),human LIV-1 [5],3400 MFI
same,EC50,human LIV-1 [6],1.06 nM
same,Top (MFI),human LIV-1 [6],18800 MFI
"LM-001-LM-D01 (antibody, V domains shown, LM-D01 drug-linker conjugated; site and chain not stated) VH: EVQLVQSGAEVKKPGASVKVSCKASGYTFTSYWIHWVRQAPGQGLEWMGTIYPGDADTRSTQKFKDRVTMTADTSTSTVYMELSSLRSEDTAVYYCARSLIHDDYDKYYFDYWGQGTTVTVSS VL: DIQMTQSPSSLSASVGDRVTITCKARQDINKYIAWYQQKPGKAPKLLIHYTSILQPGIPSRFSGSGSGRDYTFTISSLQPEDIATYYCLQYDYFFTFGGGTKVEIK","Bottom (% viability), BT20/H_LIV1-High expression",human LIV-1 [7],37.9%
same,"Bottom (% viability), BT20/H_LIV1-Low expression",human LIV-1 [7],48.4%
"LM-001-DXD (antibody, V domains shown, DXD drug moiety conjugated; site and chain not stated) VH: EVQLVQSGAEVKKPGASVKVSCKASGYTFTSYWIHWVRQAPGQGLEWMGTIYPGDADTRSTQKFKDRVTMTADTSTSTVYMELSSLRSEDTAVYYCARSLIHDDYDKYYFDYWGQGTTVTVSS VL: DIQMTQSPSSLSASVGDRVTITCKARQDINKYIAWYQQKPGKAPKLLIHYTSILQPGIPSRFSGSGSGRDYTFTISSLQPEDIATYYCLQYDYFFTFGGGTKVEIK","Bottom (% viability), BT20/H_LIV1-High expression",human LIV-1 [7],43.7%
same,"Bottom (% viability), BT20/H_LIV1-Low expression",human LIV-1 [7],58.9%
"LM-001-LM-D03 (antibody, V domains shown, LM-D03 drug-linker conjugated; site and chain not stated) VH: EVQLVQSGAEVKKPGASVKVSCKASGYTFTSYWIHWVRQAPGQGLEWMGTIYPGDADTRSTQKFKDRVTMTADTSTSTVYMELSSLRSEDTAVYYCARSLIHDDYDKYYFDYWGQGTTVTVSS VL: DIQMTQSPSSLSASVGDRVTITCKARQDINKYIAWYQQKPGKAPKLLIHYTSILQPGIPSRFSGSGSGRDYTFTISSLQPEDIATYYCLQYDYFFTFGGGTKVEIK","Bottom (% viability), BT20/H_LIV1-High expression",human LIV-1 [7],19.5%
same,"Bottom (% viability), BT20/H_LIV1-Low expression",human LIV-1 [7],46.9%
"290F10G10.z2-MMAE (antibody, V domains shown, MMAE drug moiety conjugated; site and chain not stated, also called LM-001-MMAE) VH: EVQLVQSGAEVKKPGASVKVSCKASGYTFTSYWIHWVRQAPGQGLEWMGTIYPGDADTRSTQKFKDRVTMTADTSTSTVYMELSSLRSEDTAVYYCARSLIHDDYDKYYFDYWGQGTTVTVSS VL: DIQMTQSPSSLSASVGDRVTITCKARQDINKYIAWYQQKPGKAPKLLIHYTSILQPGIPSRFSGSGSGRDYTFTISSLQPEDIATYYCLQYDYFFTFGGGTKVEIK","Min cell viability %, BT20/H_LIV-1 High",human LIV-1 [8],14.7%
same,"Min cell viability %, BT20/H_LIV-1 Low",human LIV-1 [8],37.9%
same,"Min cell viability %, HEK293/H_LIV-1",human LIV-1 [8],15.3%
same,"Bottom (% viability), BT20/H_LIV1-High expression",human LIV-1 [7],29.1%
same,"Bottom (% viability), BT20/H_LIV1-Low expression",human LIV-1 [7],46.8%
same,EC50,human LIV-1 [4],0.34 nM
same,Top (MFI),human LIV-1 [4],19100 MFI
same,EC50,human LIV-1 [5],0.68 nM
same,Top (MFI),human LIV-1 [5],3570 MFI
same,EC50,human LIV-1 [6],0.66 nM
same,Top (MFI),human LIV-1 [6],20800 MFI
"5D6B10 (antibody, V domains shown, Tested as chimeric antibody) VH: QVQLKQSGPGLVQPSQSLSITCTVSGFSLTTYGIHWVRQSPGKGLEWLGVIWTGGTTDYNAAFISRLSISKDNSKSQVFFKMNSLQANDTAIYYCARGPSSYWGQGTLVTVSA VL: DIVMTQSQKFMSTSVGDRVSVTCKASQNVDTNVVWYQQKPGQSPKALIHSASYRYSGVPDRFTGSGSGTDFTLTISNVQSEDLAEYFCQQYNNYPWTFGGGTKLEIK",ADCC reporter EC50,human LIV-1 [9],0.3 nM
same,ADCC reporter Top (RFU),human LIV-1 [9],121000 RFU
same,Internalization EC50,human LIV-1 [10],12.7 nM
same,Internalization Top (RFU),human LIV-1 [10],145000 RFU
same,Cell viability(%),human LIV-1 [11],16.4%
same,Cytotoxicity IC50,human LIV-1 [11],1.55 nM
same,EC50,human LIV-1 [12],0.21 nM
same,Top (MFI),human LIV-1 [12],70100 MFI
same,EC50,human LIV-1 [13],0.29 nM
same,Top (MFI),human LIV-1 [13],61900 MFI
same,EC50,rhesus LIV-1,0.27 nM
same,Top (MFI),rhesus LIV-1,38400 MFI
same,EC50,cynomolgus LIV-1 [14],0.17 nM
same,Top (MFI),cynomolgus LIV-1 [14],41100 MFI
same,EC50,cynomolgus LIV-1 [15],0.39 nM
same,Top (MFI),cynomolgus LIV-1 [15],25700 MFI
same,EC50,cynomolgus LIV-1 [16],0.53 nM
same,Top (MFI),cynomolgus LIV-1 [16],13900 MFI
